Measured values published in article PMC10053435.

Columns and labels:
[1] = biological target: mature Epinephelus coioides mtHsp60 (EcHsp60), without the mitochondrial importing signal (Epinephelus coioides (grouper)); experiment: negative-stain TEM with single particle analysis; purified oligomeric EcHSP60 at 1 mg/ml, 2% uranyl acetate, 2D classification
[2] = biological target: mature Epinephelus coioides mtHsp60 (EcHsp60), without the mitochondrial importing signal (Epinephelus coioides (grouper)); experiment: cross-linking; dimeric EcHsp60 at 0.6 mg/ml, BS^3 0.15 to 0.6 mM, 37°C 30 min, phosphate buffer pH 7.6 with 300 mM NaCl, SDS-PAGE
[3] = biological target: mature Epinephelus coioides mtHsp60 (EcHsp60), without the mitochondrial importing signal (Epinephelus coioides (grouper)); experiment: SEC; protein homogenised and purified at room temperature (RT, 25°C); Superdex S200pg 16/600, 25 mM Tris-HCl pH 7.6, 150 mM NaCl, 1 ml/min
[4] = biological target: mature Epinephelus coioides mtHsp60 (EcHsp60), without the mitochondrial importing signal (Epinephelus coioides (grouper)); experiment: SEC; protein homogenised and purified at 4°C (LT); Superdex S200pg 16/600, 25 mM Tris-HCl pH 7.6, 150 mM NaCl, 1 ml/min
[5] = biological target: naïve EcHsp60 K266A (Epinephelus coioides (grouper)); experiment: SEC; WT and mutated naïve EcHsp60 purified at 4°C; analytical Superdex 200 Increase 10/300 GL
[6] = biological target: naïve EcHsp60 R264AK266A (Epinephelus coioides (grouper)); experiment: as above
[7] = biological target: naïve EcHsp60 R264AK266A (Epinephelus coioides (grouper)); experiment: negative-stain TEM with single particle analysis; purified oligomeric EcHSP60 at 1 mg/ml, 2% uranyl acetate, 2D classification

Substance “mature Epinephelus coioides mtHsp60 (EcHsp60), without the mitochondrial importing signal (natural protein)” has a stoichiometry N [1] of 7, a stoichiometry N [2] of 2 and a stoichiometry N [3] of 7. For the same substance, the stoichiometry N [4] was 2.

Substance naïve EcHsp60 K266A (natural protein) has a stoichiometry N [5] of 7.

In the case of “naïve EcHsp60 R264AK266A (natural protein)”, the stoichiometry N [6] is reported as 7 and the stoichiometry N [7] is reported as 7.
